In US20020160955A1 (published 2002):
Changes are numbered by the printed parent chain. Names may count otherwise.

T1: human IGFBP-1 (human, UniProt P08833 26-259)
T1 construct: secreted recombinant protein purified from conditioned medium
T1 sequence (looked up): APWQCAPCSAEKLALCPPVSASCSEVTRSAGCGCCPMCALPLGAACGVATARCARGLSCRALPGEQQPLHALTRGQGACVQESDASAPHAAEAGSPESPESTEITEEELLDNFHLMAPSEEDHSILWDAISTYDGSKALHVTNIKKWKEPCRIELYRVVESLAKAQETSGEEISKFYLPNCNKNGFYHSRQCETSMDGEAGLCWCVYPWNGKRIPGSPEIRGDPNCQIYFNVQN

B1: IGF-I D12A (G1S-A70V background) displayed on phage (ligand, not shown: large carriers)
chain: SPETLCGAELVAALQFVCGDRGFYFNKPTGYGSSSRRAPQTGIVDECCFRSCDLRRLEMYCAPLKPAKSV
notes: monovalent M13 phage display
B2: IGF-I F49A (G1S-A70V background) displayed on phage (ligand, not shown: large carriers; small tags and cut ends)
chain: B1 chain with A12D, F49A
notes: monovalent M13 phage display; also called IGF-F49A phage
B3: IGF-I S35A (G1S-A70V background) displayed on phage (ligand, not shown: large carriers)
chain: B1 chain with A12D, S35A
notes: monovalent M13 phage display
B4: IGF-I T41A (G1S-A70V background) displayed on phage (ligand, not shown: large carriers)
chain: B1 chain with A12D, T41A
notes: monovalent M13 phage display
B5: IGF-I D45A (G1S-A70V background) displayed on phage (ligand, not shown: large carriers)
chain: B1 chain with A12D, D45A
notes: monovalent M13 phage display

How the values were obtained:
human IGFBP-1 = target: T1, human IGFBP-1; assay: competitive phage ELISA
Experimental: (§1) E. coli cells (XL1-Blue, Stratagene) freshly transformed with phagemid vector were grown overnight in 5 mL 2YT medium (Sambrook et al, supra) in the presence of M13-VCS helper phage (Stratagene). Phage particles were harvested and resuspended in PBS buffer as described in Lowman, H. B., “Phage Display of Peptide Libraries on Protein Scaffolds,” in Cabilly, S. (ed.), Combinatorial Peptide Library Protocols (Humana Press Inc.: Totowa, N.J., 1998), pp. 249-264. Then phage concentrations were normalized to yield a maximal ELISA signal of 0.2-0.4 for each mutant (Lowman, in Cabilly, S. (ed.), supra). Threefold serial dilutions of soluble competitor were prepared on non-absorbent microtiter plates (Nunc, F, 96 wells) with binding buffer (0.5% TWEEN™ 20/PBS) containing phage at the previously-determined concentrations. […] After blocking, the plates containing immobilized target were washed with 0.05% TWEEN™/PBS buffer and subsequently incubated with 80 μl/well of the premixed phage-competitor solutions for 1 hour at room temperature. After washing, bound phage was detected with 80 μl/well of a solution containing a primary rabbit anti-phage polyclonal antibody and a secondary goat anti-rabbit monoclonal antibody-horseradish peroxidase conjugate in 0.5% TWEEN 20™/PBS. o-Phenylenediamine (Sigma) and tetramethylbenzidine (Kirkegaard and Perry) were used as chromogenic substrates, resulting in product detection at 492 and 450 nm, respectively. IC₅₀ values were determined by fitting the binding data to a generic saturation curve (Lowman, in Cabilly, S. (ed.), supra). […] Numbers in Table I represent mean +standard deviation of individually assessed IC₅₀ values.

[1] = target: T2, recombinant human IGFBP-3 (human, UniProt P17936 28-291); assay: competitive phage ELISA: soluble IGFBP-3 against IGFBP-3-coated wells
T2 construct: secreted recombinant protein purified from conditioned medium
T2 sequence (P17936 28-291 limits assumed): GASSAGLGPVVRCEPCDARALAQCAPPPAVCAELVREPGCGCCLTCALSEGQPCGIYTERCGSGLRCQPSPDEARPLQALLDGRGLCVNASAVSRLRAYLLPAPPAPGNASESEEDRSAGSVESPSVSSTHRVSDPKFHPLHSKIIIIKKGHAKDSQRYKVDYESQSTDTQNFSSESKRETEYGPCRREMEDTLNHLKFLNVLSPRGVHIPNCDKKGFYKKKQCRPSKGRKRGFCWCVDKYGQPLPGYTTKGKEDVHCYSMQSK
Experimental: The plates were then blocked with 0.5% TWEEN 20™/PBS (also used as binding buffer) for 2 hours at room temperature (proteinaceous blocking agents like bovine serum albumin were avoided to prevent potential IGF or IGFBP contamination). E. coli cells (XL1-Blue, Stratagene) freshly transformed with phagemid vector were grown overnight in 5 mL 2YT medium (Sambrook et al, supra) in the presence of M13-VCS helper phage (Stratagene). Phage particles were harvested and resuspended in PBS buffer as described in Lowman, H. B., “Phage Display of Peptide Libraries on Protein Scaffolds,” in Cabilly, S. (ed.), Combinatorial Peptide Library Protocols (Humana Press Inc.: Totowa, N.J., 1998), pp. 249-264. Then phage concentrations were normalized to yield a maximal ELISA signal of 0.2-0.4 for each mutant (Lowman, in Cabilly, S. (ed.), supra). Threefold serial dilutions of soluble competitor were prepared on non-absorbent microtiter plates (Nunc, F, 96 wells) with binding buffer (0.5% TWEEN™ 20/PBS) containing phage at the previously-determined concentrations.

[2] = target: T2, recombinant human IGFBP-3; assay: competitive phage ELISA
Experimental: as §1

Row | Binder | binding result (human IGFBP-1) | binding result [2] | also measured
1 | B1 | binds | – | –
2 | B2 | – | – | binding result [1]: binds
3 | B3 | – | binds | –
4 | B4 | – | binds | –
5 | B5 | binds | – | –
